In patent US20260022150A1 (KEROS THERAPEUTICS, published 2026):

Target: T1, human GDNF family receptor alpha-1 (GFRα1) joined to an Fc domain at its C-terminus (human, UniProt P56159-2 25-445)
T1 construct: Bought from R&D Systems; also called GFRa1-hFc; human GFRα1 Fc chimera (R&D Systems); not shown: human Fc domain joined to the C-terminus of GFRα1
T1 sequence (looked up): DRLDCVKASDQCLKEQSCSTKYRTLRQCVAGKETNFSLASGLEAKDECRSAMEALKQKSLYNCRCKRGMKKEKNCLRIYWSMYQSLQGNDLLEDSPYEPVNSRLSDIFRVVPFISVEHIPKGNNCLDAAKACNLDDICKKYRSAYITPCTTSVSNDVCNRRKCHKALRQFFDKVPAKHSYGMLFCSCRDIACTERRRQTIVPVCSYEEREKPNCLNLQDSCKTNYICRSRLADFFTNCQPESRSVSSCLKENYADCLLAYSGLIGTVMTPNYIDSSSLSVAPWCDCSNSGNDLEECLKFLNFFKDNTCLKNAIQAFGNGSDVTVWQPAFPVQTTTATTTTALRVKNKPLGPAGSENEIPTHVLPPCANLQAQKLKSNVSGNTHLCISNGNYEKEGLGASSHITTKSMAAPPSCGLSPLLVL
Assay: SPR; GFRα1-Fc chimera captured on CM5 chip by His-tag capture kit, analyte flowed over; apparent KD (KD,app)
Excerpt: Surface Plasmon Resonance (SPR) was used to determine the binding affinities of the GDNF fusion polypeptides to GFRα1. The GDNF fusion polypeptides in this example include fusion polypeptides 2-4 as described in Example 1, as well as Fc (T366W)-GGG-hGDNF₁₁₇₋₂₁₁ (SEQ ID NO: 37) (fusion polypeptide 6) which has an Fc domain having the amino acid substitution T366W (relative to the sequence of human IgG1) joined to the N-terminus of the GDNF variant having amino acids 117-211 of SEQ ID NO: 1 through a GGG linker. The SPR assay was configured to capture human GFRα1, GFRα2, and GFRα3 Fc chimeras (R&D Systems) onto a CM5 chip surface using His-tag capture kit (GE Healthcare) to appropriate levels for kinetic analysis. GDNF fusion polypeptides were flowed over the immobilized GFRs to measure the kinetics of GDNF fusion polypeptide and GFR association and dissociation. The binding of various concentrations of GDNF fusion polypeptides was measured in HBS-EP buffer (GE Healthcare) at a flow rate of 30 μL/min. Binding curves were fitted using Scrubber2 software to obtain apparent binding affinities and kinetic constants.

B1: R&D hGDNF (ligand, human, UniProt P39905 78-211, looked up)
chain: SPDKQMAVLPRRERNRQAAAANPENSRGKGRRGQRGKNRGCVLTAIHLNVTDLGLGYETKEELIFRYCSGSCDAAETTYDKILKNLSRNRRLVSDKVGQACCRPIAFDDDLSFLDDNLVYHILRKHSAKRCGCI
notes: also called human glial-derived neurotrophic factor
  Kd: ~0.9 nM
